Test results published in patent publication US12723100 (CSPC MEGALITH BIOPHARMACEUTICAL, dated 2026).
Numbering of substitutions follows the chain as printed.

T1: rat Nectin-4 (rat, UniProt Q8R007 31-508 (mouse entry))
T1 construct: Transiently expressed on 293T cells
T1 chain: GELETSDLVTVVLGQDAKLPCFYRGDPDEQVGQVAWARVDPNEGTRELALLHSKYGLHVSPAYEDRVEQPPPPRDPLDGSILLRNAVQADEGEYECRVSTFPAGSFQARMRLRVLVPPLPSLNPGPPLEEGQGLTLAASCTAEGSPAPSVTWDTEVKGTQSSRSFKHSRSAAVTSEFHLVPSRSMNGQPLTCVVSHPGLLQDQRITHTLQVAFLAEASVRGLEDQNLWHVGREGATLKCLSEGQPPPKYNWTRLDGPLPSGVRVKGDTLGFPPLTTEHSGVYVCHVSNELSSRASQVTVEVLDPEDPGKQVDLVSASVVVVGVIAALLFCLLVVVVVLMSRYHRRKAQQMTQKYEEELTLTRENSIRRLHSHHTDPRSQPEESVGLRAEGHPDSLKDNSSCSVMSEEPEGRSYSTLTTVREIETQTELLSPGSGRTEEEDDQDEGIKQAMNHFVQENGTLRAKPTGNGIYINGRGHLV

T2: mouse Nectin-4 (mouse, UniProt Q8R007 31-508)
T2 construct: Transiently expressed on 293T cells; also called murine Nectin-4
T2 sequence: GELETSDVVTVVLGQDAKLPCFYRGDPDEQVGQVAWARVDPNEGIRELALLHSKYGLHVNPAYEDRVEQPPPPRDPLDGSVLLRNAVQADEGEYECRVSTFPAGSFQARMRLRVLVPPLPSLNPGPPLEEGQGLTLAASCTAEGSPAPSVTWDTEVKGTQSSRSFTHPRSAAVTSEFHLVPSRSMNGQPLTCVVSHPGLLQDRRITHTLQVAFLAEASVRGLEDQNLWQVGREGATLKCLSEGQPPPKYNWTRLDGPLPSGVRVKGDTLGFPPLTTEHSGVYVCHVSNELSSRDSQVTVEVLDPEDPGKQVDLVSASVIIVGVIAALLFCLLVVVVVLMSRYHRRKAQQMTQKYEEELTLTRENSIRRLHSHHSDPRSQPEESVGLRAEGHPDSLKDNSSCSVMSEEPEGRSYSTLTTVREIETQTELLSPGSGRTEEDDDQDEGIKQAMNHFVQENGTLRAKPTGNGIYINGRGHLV

T3: full-length human Nectin-4 on cells (human, UniProt Q96NY8 32-510)
T3 construct: the cell is named under assay; also called CHO-Nectin-4 cells; Nectin-4-CHO
T3 sequence: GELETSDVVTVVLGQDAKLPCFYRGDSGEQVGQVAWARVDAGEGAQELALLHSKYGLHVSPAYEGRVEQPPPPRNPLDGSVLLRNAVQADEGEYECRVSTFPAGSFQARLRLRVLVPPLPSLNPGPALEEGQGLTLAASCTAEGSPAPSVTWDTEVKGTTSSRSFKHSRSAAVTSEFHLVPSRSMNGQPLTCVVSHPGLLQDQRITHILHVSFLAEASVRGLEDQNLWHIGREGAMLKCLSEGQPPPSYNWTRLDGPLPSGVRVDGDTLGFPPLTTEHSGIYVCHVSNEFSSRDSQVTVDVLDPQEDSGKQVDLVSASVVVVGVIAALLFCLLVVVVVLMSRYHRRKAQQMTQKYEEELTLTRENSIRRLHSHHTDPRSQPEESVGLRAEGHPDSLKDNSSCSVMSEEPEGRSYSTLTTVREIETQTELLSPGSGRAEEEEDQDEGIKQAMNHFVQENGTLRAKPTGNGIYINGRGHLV

B1: N4_mAb 5 (antibody, human IgG1, V domains shown)
VH: EVQLQQSGPDLVKPGASVKISCKASGYSFTGHYMHWVKQSHGKSLEWIGRVNPNNGGSSYNQKFKDKAILTVDKSSTTAYMELRSLTSEDSAVYYCARDPLGGSYGFAYWGQGTLVTVSA
VL: DIVLTQSPASLAVSLGQRATISCRASQSVTTSSYSYMHWYQQKPGQPPKLLIKYASNLESGVPARFSGSGSGTDFTLNIHPVEEEDTATYYCQHSWEIPYTFGGGTKLEMK
notes: Tested as chimera (human IgG1/kappa constants); not shown: human IgG1 constant region (Uniprot P01857); human Kappa light chain constant region (UniProt P01834)
B2: N4_mAb 6 (antibody, human IgG1, V domains shown)
VH: QVQLQQSGPELVKPGASVRISCKASGYTFTTYYIHWVKQRPGQGLEWIGWIYPGNVNTKYTENFKDKATLTADKSSSTAYMQLSSLTSEDSAVYFCARGLYYFDFWGQGTTLTVSS
VL: SIVMTQTPKFLLVSAGDRVTITCKASQSVNNDVAWYQQKPGQSPKLLIYYASNRDTGVPDRFTGSGFGTDFTFTISSVQAEDLAVYFCQQDYSSPYTFGGGTKLEIK
notes: Tested as chimera (murine variable regions, human IgG1/kappa constants); not shown: human IgG1 constant region (Uniprot P01857); human Kappa light chain constant region (UniProt P01834)
B3: N4_mAb 7 (antibody, human IgG1, V domains shown)
VH: QVQLQQSGPELVKPGASVKMSCKASGYTFTTYYIHWVKQRPGQGLEWIGWIYPGNAGIKSNEKFKGKTTLTADKSSSTAYMLLSSLTSEDSAIYFCARGVYFFDYWGQGTTLTVSS
VL: B2 VL with A34S, Y36F, D55Y, T63S, F67Y, S76T, S77T
notes: as for B2
B4: N4_mAb 8 (antibody, human IgG1, V domains shown)
VH: B2 VH with E10V, T31S, T61N, K65R, A79S, L100I, F105Y
VL: B2 VL with S1I, Q38E, F67Y, S77T, Q89H, Y96F, G100S
notes: as for B2
B5: N4_mAb 2 (antibody, human IgG1, V domains shown)
VH: QVQLKQSGPNLVQPSQSLSITCTVSGFSLTTYGAHWVRQSPGKGLEWLGVIWRGGSTDYNAAFMSRLSITKDNSKSQVFFKMNSLQADDTAIYYCAKIGYDGYAMDNWGQGTSVTVSS
VL: DFQVTQSPASLSASVGETVTITCRTSENIHNYLAWYQQKQGKSPQLLVYNAKTLADGVPSRFSGSGSGTQYSLKINSLQPEDFGTYYCQHFWSSPWTFGGGTKLEIK
notes: as for B1
B6: N4_mAb 3 (antibody, human IgG1, V domains shown)
VH: EVQLQQSGAELVKPGASVKLSCTVSGFNIKDTYMHWVKQRPEQGLEWIGRIDPANGNTKYDPKFQGKATIIADKASNTAYLQLSSLTSEDAAVYYCAHYYGSSYFAMDCWGQGTSVTVSS
VL: DIVMTQSHKFMSTSVGDRVSITCKASQDVSTAVAWYQQKPGQSPKLLIYWASTRHTGVPDRFTGSGSGTDYTLTISSVQTEDLALYYCQQHYSTPLTFGAGTKLELK
notes: as for B1
B7: N4_mAb 4 (antibody, human IgG1, V domains shown)
VH: DVQLQESGPDLVKPSQSLSLTCTVTGYSITSAYNWHWIRQFPGNKLEWMGYIHYSGRTNYNPSLKSRISITRDTSKNQFFLQLNSLTTEDTATYYCARWITTATGWYLDVWGAGTTVTVSS
VL: not shown
notes: as for B1

Assays:
rat Nectin-4 [1] = target: T1, rat Nectin-4; experiment: flow cytometry, transfected 293T cells; +++ EC50 less than 5 nM
Procedure: (§1) CDNAs encoding Nectin-4 protein from cynomolgus monkey (SEQ ID NO: 62), rat (SEQ ID NO: 63), or mouse (SEQ ID NO: 64) were separately cloned into a pcDNA3.1-based mammalian expression plasmid. The respective plasmids were transfected to human 293T cells in a similar way described in Example 6. The binding EC50 of disclosed human Nectin-4 antibodies to species-specific Nectin-4 transiently expressed on 293T cell surface was measured by flow cytometry.

mouse Nectin-4 [2] = target: T2, mouse Nectin-4; experiment: flow cytometry, transfected 293T cells; + EC50 between 25 nM and 133 nM
Procedure: as §1

mouse Nectin-4 [3] = target: T2, mouse Nectin-4; experiment: flow cytometry, transfected 293T cells; ++ EC50 between 5 nM and 25 nM
Procedure: as §1

rat Nectin-4 [4] = target: T1, rat Nectin-4; experiment: as above
Procedure: as §1

rat Nectin-4 [5] = target: T1, rat Nectin-4; experiment: flow cytometry, transfected 293T cells; + EC50 between 25 nM and 133 nM
Procedure: as §1

[6] = target: T3, full-length human Nectin-4 on cells; experiment: flow cytometry competition on CHO-Nectin-4 cells; competitor biotinylated human TIGIT; TIGIT as competitor
Procedure: The ability of disclosed Nectin4-specific antibodies to block TIGIT binding to CHO-Nectin-4 cells was assessed by FACS. Briefly, CHO-Nectin-4 cells were incubated with dilutions of the disclosed purified recombinant antibodies. Then, biotinylated human TIGIT protein (SinoBiologic, catalog: 10917-H08H-B, lot: LC13AP0902) was added to the plate. After 30-minute incubation, cells were washed, followed by adding Streptavidin Alexa 647 (1:1000) to the samples. After a 30 minute incubation, the samples were analyzed on a flow cytometry instrument (Intellicyte, IQue plus, Sartorius) for TIGIT blocking activity. The positive control antibody used in this blocking assay is PC2, a Nectin-4 antibody with known blocking activity.

[7] = target: T3, full-length human Nectin-4 on cells; experiment: flow cytometry competition on CHO-Nectin-4 cells; competitor biotinylated human Nectin-1-His; Nectin-1 as competitor
Procedure: The ability of disclosed Nectin4-specific antibodies to block Nectin-1 binding to Nectin-4 expressing cells (CHO cells transfected with human Nectin-4) was determined by FACS. Briefly, CHO-Nectin-4 cells were incubated with dilutions of the disclosed Nectin-4 purified recombinant antibodies. Then, biotinylated human Nectin-1 with His tag (ACROBiosystems, catalog number: PV1-H5223, lot: 733-38GS1-47, 0.75 ug/ml) was added to the plate. After 30-minute incubation, cells were washed, followed by adding Streptavidin Alexa 647 (1:1000) to the samples. After a 30 minute incubation, the samples were analyzed on a flow cytometry instrument (Intellicyte, IQue plus, Sartorius) for Nectin-1 blocking activity. The positive control antibody used in this blocking assay is a reference antibody (known to be a recombinant Nectin-4 specific antibody, made by Novarock Biotherapeutics, lot: 03042020KD).

| Binder | EC50 (rat Nectin-4 [1]) | EC50 (mouse Nectin-4 [3]) | also measured |
| --- | --- | --- | --- |
| B1 | < 5 nM |  | EC50 (mouse Nectin-4 [2]): 25 to 133 nM |
| B2 | < 5 nM | 5 to 25 nM |  |
| B3 | < 5 nM | 5 to 25 nM |  |
| B4 | < 5 nM | 5 to 25 nM |  |
| B5 |  | 5 to 25 nM | EC50 (rat Nectin-4 [4]): 5 to 25 nM |
| B6 |  |  | EC50 (rat Nectin-4 [5]): 25 to 133 nM |
| B7 |  |  | EC50 (rat Nectin-4 [5]): 25 to 133 nM; EC50 [6]: > 130 nM; EC50 [7]: > 130 nM |
